In one data set the test system is CD70^− Hs 835.T cells. The data set can be described thus: 3H-TdR proliferation assay, CD70-negative RCC line. The format is cell-based, human. The settings on record: CD70^− Hs 835.T, compared with CD70^+ RCC lines.
A further data set relates to Caki-1 tumors. The data set can be described thus: Caki-1 subcutaneous xenograft model of RCC. It is filed as in vivo, nude mice. The arrangement: average tumor size: dose or concentration left out as unconfirmed. An excerpt:
Tumors were initiated in nude mice by implanting tissue tumor blocks (30 mm^3 in size) containing Caki-1 cells. Treatment began when average tumor size within a treatment group was around 100 mm^3. In the upper panel, treatment for the IgG and 1F6 groups began 17 days post implantation (filled arrow), while treatment for the 1F6-vcAFP and IgG-vcAFP groups began 25 days post implantation (open arrow). Indicated doses of either unconjugated mAbs or their ADCs were given for one course on a q4d×4 schedule.
Using xenografts of the Caki-1 line in nude mice, the […] antitumor activity of 1F6-vcAFP was tested. To establish Caki-1 tumors, nude mice were injected subcutaneously with 5×10^6 Caki-1 cells in 0.2 ml PBS. […] Caki-1-containing tumors were excised from tumor bearing mice and tumor tissue blocks of approximately 30 mm^3 were prepared. Naive nude mice to be used for evaluating in vivo antitumor activity of anti-CD70 ADC were each implanted subcutaneously with one tumor block of 30 mm^3. […] Treatment was initiated when the average tumor size within a group was approximately 100 mm^3 (FIG. 12, arrows).

Data set [1] deals with 786-O cells. The data set can be described thus: alamarBlue reduction cell viability (cytotoxicity) assay. As to conditions: 96 hours. As for the experimental part: (§1) 786-O or Caki-1 cells were incubated with graded doses of 1F6-vcAFP or the non-binding control IgG-vcAFP. Cells were incubated for a total of 96 hours. ^3H-thymidine incorporation (upper panel) and reduction of alamarBlue (lower panel) were used to determine proliferation and cell viability, respectively. Data points are expressed as percentages of the untreated control. Error bars represent the standard deviations of values obtained from quadruplicate wells.
(§2) To examine the responses of CD70^+ RCC lines to 1F6 ADCs, cells were seeded between 1,000 to 3,000 cells per well in 100 μl of medium. An additional 100 μl of culture medium containing graded doses of ADCs were added to the wells after cells were allowed to attached overnight. In addition to DNA synthesis, cell viability, as a reflection of the cytotoxic activities of ADCs, was also assayed by the reduction of alamarBlue™ (Biosource International, Camarillo, Calif.). The alamarBlue™ dye was added at a one to four dilution during the last 4 to 24 hours of the incubation. Dye reduction was assessed by fluorescence spectrometry using the excitation and emission wavelengths of 535 nm and 590 nm, respectively. For analysis, the amount of ^3H-TdR incorporated or the extent of alamarBlue™ reduction by the treated cells was compared to that of the untreated control cells.

Data set [2] deals with Caki-1 cells. Described as above. The settings on record: Caki-1, alamarBlue reduction, 96 hours. How it is done: as §1, §2
The test system of data set [3] is Caki-1 cells. Nature of the data set: 3H-TdR proliferation assay, RCC lines. The settings on record: Caki-1, 3H-TdR incorporation, 96 hours. It is filed as cell-based, human.
Data set [4] has as its system CD70^+ hematologic cell lines. The data set can be described thus: 3H-TdR proliferation assay, panel of CD70^+ hematologic lines. It is filed as cell-based, human. As to conditions: all the responsive cell lines tested. How it is done:
FIG. 5: Effects of anti-CD70 ADCs on the proliferation of transformed hematologic cell lines. A subset of the CD70^+ cell lines shown in FIG. 4 and the CD70^− Jurkat cell line were tested for their sensitivity toward 1F6 ADCs. Graded doses of the 1F6-vcMMAE, 1F6-vcAFP, or the corresponding non-binding control IgG (IgG) ADCs were added to cells at the initiation of culture. Cells were exposed to the ADCs continuously for a total of 96 hours. Proliferation was determined by pulsing with ^3H-TdR during the last 16 hours of incubation. The upper panels show the response of the WSU-NHL and Jurkat lines. The lower panel summaries the responses by the tested cell lines to 1F6-vcMMAE and 1F6-vcAFP in form of IC50s.
A subset of the CD70^+ hematologic lines listed in FIG. 4 was tested for sensitivity to the 1F6 ADCs. These lines were seeded at 5,000 cells per well in 96-well plates in quadruplicates in a total of 200 μl of culture medium containing graded doses of the ADCs as indicated in the FIG. 5 and the accompanying figure legend. Proliferation assays were carried out for 96 hours. Tritiated thymidine (^3H-TdR) incorporation during the last 16 hours of incubation was used to assess DNA synthesis. The responses of a CD70^+ B lymphoma cell line WSU-NHL and the CD70^− Jurkat cells are shown in the upper panels of FIG. 5. […]

For another data set, the system named is activated T cell clones. Nature of the data set: Proliferation of activated T cell clones (3H-TdR). The format is cell-based, human.
In data set [5] the test system is CD70^+ RCC lines. The data set can be described thus: 3H-TdR proliferation assay, panel of RCC lines. It is filed as cell-based, human. The settings on record: CD70^+ RCC lines tested.
Data set [6] relates to PBMCs stimulated with irradiated allogeneic CESS cells. The data set can be described thus: Mixed lymphocyte reaction (3H-TdR). As to conditions: MLR. It is filed as cell-based, human.
For data set [7], the system named is CD70^+ RCC lines. The settings on record: in 4 of the 7 CD70^+ RCC lines tested. As for the experimental part: as §2
The test system of data set [8] is 786-O cells. Nature of the data set: 3H-TdR proliferation assay, RCC lines. It is filed as cell-based, human. The settings on record: 3H-TdR incorporation, 96 hours.

B1: 1F6-vcAFP: anti-CD70 mAb 1F6 linked to auristatin phenylalanine phenylenediamine by the valine-citrulline (vc) dipeptide linker (conjugate)
VH: QIQLVQSGPEVKKPGETVKISCKASGYTFTNYGMNWVKQAPGKGLKWMGWINTYTGEPTYADAFKGRFAFSLETSASTAYLQINNLKNEDTATYFCARDYGDYGMDYWGQGTSVTVSS
VL: DIVLTQSPASLAVSLGQRATISCRASKSVSTSGYSFMHWYQQKPGQPPKLLIYLASNLESGVPARFSGSGSGTDFTLNIHPVEEEDAATYYCQHSREVPWTFGGGTKLEIKR
modifications: non-natural residues
notes: anti-CD70 mAb 1F6 linked to auristatin phenylalanine phenylenediamine by the valine-citrulline (vc) dipeptide linker
B1: the “IC50 values for proliferation inhibition” value is “Substantially higher IC50 values” in the data set with CD70^− Hs 835.T cells and 2 to 247 ng/mL in the data set with CD70^+ RCC lines [5]. The average tumor size in the data set with Caki-1 tumors (1, 56 days after treatment initiation) was below 600 mm^3; in the data set with Caki-1 tumors (3, 70 days after treatment initiation), “under 200 mm^3”. Moreover, the “therapeutic activity / tumor growth” value in the data set on Caki-1 tumors (Caki-1 xenograft, q4d×4) is “significantly inhibited tumor growth”. Besides, the “concentration at which maximal cytotoxic effects were achieved” value in the data set on 786-O cells [1] and in the data set with Caki-1 cells [2] was “lower than 0.1 μg/ml” in each case. Besides, the “concentration at which maximal proliferation inhibitory effects were achieved” value with Caki-1 cells [3] and with 786-O cells [8] was “lower than 0.1 μg/ml” throughout. Besides, the relative inhibitory activity entry in [4] is given as “more potent inhibitory activity than 1F6-vcMMAE”. In addition, the relative activity result in the data set with activated T cell clones (T cell clones) is reported as “more active than 1F6-vcVMMAE”; in [6] it was “more active than 1F6-vcMMAE”. The “IC50, proliferation” value in the data set with activated T cell clones (all 3 clones) is on record as “below 0.05 μg/ml”. The “IC50, T cell proliferation” value in [6] (5-day culture) is “approximately 0.1 μg/ml”. Further, in data set [6] (5-day culture), the “effect on T cell proliferation” value was “substantially inhibited T cell proliferation”. In the data set on CD70^+ RCC lines [7], the “IC50 values to induce cytotoxicity” value is on record as “lower than 20 ng/ml”.

These data come from patent US8663642B2, “Anti-CD70 antibody-drug conjugates and their use for the treatment and prevention of cancer and immune disorders” (priority 2003, dated 2014).
